Tests used:
PARP-1 [1] = biological target: T1, PARP-1 (Homo sapiens, UniProt P09874 1-1014); experiment: fluorescence anisotropy; 140 mM KCl, 8 mM MgCl2; ~14-fold tighter than c-KIT, similar to 18-bp dsDNA; 25 mM HEPES pH 8.0, 140 mM KCl, 8 mM MgCl2, 50 ug/ml BSA, 0.02 mM TCEP, 4% glycerol, 11.4 mM bME, 5 nM labeled DNA, 30 min room temperature, read at 25 C; settings: protein: recombinant; tags: His-tag (pET28a); parallel G4
PARP-1 [2] = biological target: T1, PARP-1; experiment: fluorescence anisotropy; 140 mM KCl, 8 mM MgCl2; 25 mM HEPES pH 8.0, 140 mM KCl, 8 mM MgCl2, 50 ug/ml BSA, 0.02 mM TCEP, 4% glycerol, 11.4 mM bME, 5 nM labeled DNA, 30 min room temperature, read at 25 C; settings: protein: recombinant, tags: His-tag (pET28a)
PARP-1 [3] = biological target: T1, PARP-1; experiment: fluorescence anisotropy; 140 mM KCl, 8 mM MgCl2; tighter than c-KIT, Kd in figure only; 25 mM HEPES pH 8.0, 140 mM KCl, 8 mM MgCl2, 50 ug/ml BSA, 0.02 mM TCEP, 4% glycerol, 11.4 mM bME, 5 nM labeled DNA, 30 min room temperature, read at 25 C; settings: protein: recombinant; tags: His-tag (pET28a); parallel G4

T1 sequence (P09874 whole entry): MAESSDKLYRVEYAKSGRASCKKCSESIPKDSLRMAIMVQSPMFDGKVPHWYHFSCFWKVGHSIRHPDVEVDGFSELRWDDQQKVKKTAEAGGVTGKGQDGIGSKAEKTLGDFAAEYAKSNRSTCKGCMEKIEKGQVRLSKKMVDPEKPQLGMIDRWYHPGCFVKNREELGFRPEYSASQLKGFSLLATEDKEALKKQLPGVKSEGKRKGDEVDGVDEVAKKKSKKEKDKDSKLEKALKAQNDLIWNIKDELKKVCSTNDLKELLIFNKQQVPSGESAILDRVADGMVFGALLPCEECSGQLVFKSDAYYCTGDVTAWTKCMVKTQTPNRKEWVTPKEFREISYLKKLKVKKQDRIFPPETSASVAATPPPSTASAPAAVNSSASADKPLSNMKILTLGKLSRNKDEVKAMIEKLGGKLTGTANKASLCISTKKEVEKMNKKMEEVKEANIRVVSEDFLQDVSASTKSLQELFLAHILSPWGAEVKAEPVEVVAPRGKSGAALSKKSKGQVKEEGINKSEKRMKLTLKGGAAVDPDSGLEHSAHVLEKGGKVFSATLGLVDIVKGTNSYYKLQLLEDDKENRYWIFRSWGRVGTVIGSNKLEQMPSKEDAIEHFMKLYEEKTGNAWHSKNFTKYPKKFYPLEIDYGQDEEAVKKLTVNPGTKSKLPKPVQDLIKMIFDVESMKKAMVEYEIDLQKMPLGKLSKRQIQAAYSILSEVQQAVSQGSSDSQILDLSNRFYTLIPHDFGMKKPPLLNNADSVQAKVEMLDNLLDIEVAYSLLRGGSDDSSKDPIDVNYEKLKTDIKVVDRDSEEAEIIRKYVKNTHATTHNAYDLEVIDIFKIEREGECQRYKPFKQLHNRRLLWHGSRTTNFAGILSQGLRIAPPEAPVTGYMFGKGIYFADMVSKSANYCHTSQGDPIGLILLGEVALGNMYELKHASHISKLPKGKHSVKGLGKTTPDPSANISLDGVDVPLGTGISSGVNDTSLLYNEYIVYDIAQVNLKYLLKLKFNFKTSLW

In the case of GGGCGGGCGGGAGGGGAGG (structured_DNA) [c-KIT 5':L2], the Kd (PARP-1 [1]) is reported as about 30 nM.

In the case of TGGGTGGGTAGGGTGGGT (structured_DNA) [c-MYC G4DNA (Pu18 T14T23)], the Kd (PARP-1 [2]; parallel G4) is reported as 400 ± 50 nM.

CGGGCGGGCGCGAGGGAGGGGAGG (structured_DNA) [c-KIT 5'] showed a Kd (PARP-1 [2]; parallel G4) of 230 ± 9 nM.

B1: 18-bp dsDNA (dsDNA)
DNA 1: GGGTTGCGGCCGCTTGGG
DNA 2: CCCAAGCGGCCGCAACCC
With B1 the Kd (PARP-1 [2]; blunt) was 30 ± 10 nM.

CCCGGGCGGGCGGGAGGGGAGG (structured_DNA) [c-KIT L2]: binds (PARP-1 [3]).

Binder CCCGGGCGGGCGCGAGGGAGGGGAGG (structured_DNA) [c-KIT G4DNA] has a Kd (PARP-1 [2]; parallel G4, stem-loop also possible) of 430 ± 60 nM.
